IntAct's records for PubMed 29039417

B1: BBSome complex member BBS2 (Homo sapiens), Q9BXC9 (parent)
chain: MLLPVFTLKLRHKISPRMVAIGRYDGTHPCLAAATQTGKVFIHNPHTRNQHVSASRVFQSPLESDVSLLSINQAVSCLTAGVLNPELGYDALLVGTQTNLLAYDVYNNSDLFYREVADGANAIVLGTLGDISSPLAIIGGNCALQGFNHEGSDLFWTVTGDNVNSLALCDFDGDGKKELLVGSEDFDIRVFKEDEIVAEMTETEIVTSLCPMYGSRFGYALSNGTVGVYDKTSRYWRIKSKNHAMSIHAFDLNSDGVNELITGWSNGKVDARSDRTGEVIFKDNFSSAIAGVVEGDYRMDGHIQLICCSVDGEIRGYLPGTAEMRGNLMDTSAEQDLIRELSQKKQNLLLELRNYEENAKAELASPLNEADGHRGIIPANTRLHTTLSVSLGNETQTAHTELRISTSNDTIIRAVLIFAEGIFTGESHVVHPSIHNLSSSICIPIVPPKDVPVDLHLKAFVGYRSSTQFHVFESTRQLPRFSMYALTSLDPASEPISYVNFTIAERAQRVVVWLGQNFLLPEDTHIQNAPFQVCFTSLRNGGHLHIKIKLSGEITINTDDIDLAGDIIQSMASFFAIEDLQVEADFPVYFEELRKVLVKVDEYHSVHQKLSADMADHSNLIRSLLVGAEDARLMRDMKTMKSRYMELYDLNRDLLNGYKIRCNNHTELLGNLKAVNQAIQRAGRLRVGKPKNQVITACRDAIRSNNINTLFKIMRVGTASS
partner: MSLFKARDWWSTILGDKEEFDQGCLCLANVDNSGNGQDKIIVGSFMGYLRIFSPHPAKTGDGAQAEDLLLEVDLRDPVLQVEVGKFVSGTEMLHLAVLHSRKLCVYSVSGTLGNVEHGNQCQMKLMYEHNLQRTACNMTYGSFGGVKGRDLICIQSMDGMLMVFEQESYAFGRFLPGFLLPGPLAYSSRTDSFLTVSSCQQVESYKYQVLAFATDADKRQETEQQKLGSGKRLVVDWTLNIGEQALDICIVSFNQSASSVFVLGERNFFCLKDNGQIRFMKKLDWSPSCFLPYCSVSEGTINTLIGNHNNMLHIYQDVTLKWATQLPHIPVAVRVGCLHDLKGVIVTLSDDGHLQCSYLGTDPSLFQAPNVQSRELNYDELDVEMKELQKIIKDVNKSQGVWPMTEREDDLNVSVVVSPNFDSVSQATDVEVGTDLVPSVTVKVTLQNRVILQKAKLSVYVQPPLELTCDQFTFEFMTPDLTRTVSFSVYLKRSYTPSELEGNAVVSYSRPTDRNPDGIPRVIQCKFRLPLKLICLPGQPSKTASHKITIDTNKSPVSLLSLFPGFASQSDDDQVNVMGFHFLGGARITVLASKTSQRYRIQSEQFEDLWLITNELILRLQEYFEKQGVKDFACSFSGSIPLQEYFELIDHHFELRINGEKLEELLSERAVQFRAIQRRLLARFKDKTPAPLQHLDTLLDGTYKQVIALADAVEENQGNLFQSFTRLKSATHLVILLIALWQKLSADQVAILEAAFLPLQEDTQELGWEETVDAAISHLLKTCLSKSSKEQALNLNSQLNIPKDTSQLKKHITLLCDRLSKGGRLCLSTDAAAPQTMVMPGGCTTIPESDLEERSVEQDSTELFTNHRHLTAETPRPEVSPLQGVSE

Variants of: B1
Conditions: with pthb1_human BBS9, Q3SYG4

Row | Variant | effect of a mutation on the interaction
1 | L580E | with no effect
2 | I411E | with no effect
3 | H665A | with no effect
4 | D601K | with no effect
5 | M645E | with no effect
6 | Y589A | with no effect
7 | E334K | with no effect
8 | S721A | with no effect
9 | S438K | with no effect
10 | S438F | disrupting interaction strength
11 | N436E | with no effect
12 | T386E | with no effect
13 | T666E | with no effect
14 | Y603K | with no effect
15 | I548A | with no effect
16 | P690E | with no effect
17 | N676E | with no effect
18 | S551K | with no effect
19 | L350K | with no effect
20 | N393K | with no effect
21 | S623E | with no effect
22 | L387K | disrupting interaction strength
23 | V453E | with no effect

Row | Variant | effect of a mutation on the interaction
24 | S704E | with no effect
25 | Y658K | with no effect
26 | R703E | with no effect
27 | G657A | with no effect
28 | A370E | with no effect
29 | A370K | with no effect
30 | C534A | with no effect
31 | Q477A | with no effect
32 | L514A | with no effect
33 | R686E | with no effect
34 | R686K | with no effect
35 | A674K | with no effect
36 | G375A | with no effect
37 | M640K | with no effect
38 | M640A | with no effect
39 | L624E | with no effect
40 | N619K | with no effect
41 | T385K | with no effect
42 | I412R | disrupting interaction strength
43 | T424E | with no effect
44 | L538K | with no effect
45 | L538A | with no effect
46 | P448E | with no effect

Row | Variant | effect of a mutation on the interaction
47 | R353A | with no effect
48 | R464E | with no effect
49 | R464A | with no effect
50 | N500K | with no effect
51 | R374A | with no effect
52 | L416A | with no effect
53 | T524E | with no effect
54 | T524K | with no effect
55 | L457K | disrupting interaction strength
56 | A398K | with no effect
57 | Y498A | with no effect
58 | K595E | with no effect
59 | K595A | with no effect
60 | L672A | with no effect
61 | I404K | with no effect
62 | I404E | with no effect
63 | Q677E | with no effect
64 | Q677A | with no effect
65 | V582K | with no effect
66 | M483A | with no effect
67 | F531E | with no effect
68 | L647E | with no effect
69 | K599E | with no effect

Row | Variant | effect of a mutation on the interaction
70 | N557K | with no effect
71 | H431K | with no effect
72 | V598E | with no effect
73 | S642K | with no effect
74 | S642A | with no effect
75 | R403A | with no effect
76 | G542A | with no effect
77 | D649K | with no effect
78 | D613A | with no effect
79 | T406A | with no effect
80 | H384K | with no effect
81 | H384A | with no effect
82 | I568A | with no effect
83 | R635K | with no effect
84 | P432K | with no effect
85 | P432A | with no effect
86 | R594A | with no effect
87 | I702K | with no effect
88 | S427A | with no effect
89 | E356L | disrupting interaction strength
90 | K659E | with no effect
